Tests used:
IL-13 (human) [1] = target: IL-13 (human) (UniProt P35225); experiment: competition ELISA; 1 h incubation
IL-13 (human) [2] = target: IL-13 (human) (UniProt P35225); experiment: competition ELISA; 1 h incubation; remark: listed apart in the source
IL-13 (human) [3] = target: IL-13 (human) (UniProt P35225); experiment: competition ELISA; 24 h incubation
IL-13 (human) [4] = target: IL-13 (human) (UniProt P35225); experiment: competition ELISA; 24 h incubation; remark: listed apart in the source

IL-13 (human), sequence (P35225 35-146): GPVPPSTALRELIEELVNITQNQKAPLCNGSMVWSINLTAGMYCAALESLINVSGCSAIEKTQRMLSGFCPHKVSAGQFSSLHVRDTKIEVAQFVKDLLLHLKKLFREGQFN

Row | EC50 (IL-13 (human) [1]) | EC50 (IL-13 (human) [2]) | EC50 (IL-13 (human) [3]) | EC50 (IL-13 (human) [4]) | EC50 (IL-13 (human) [2]; Fab) | EC50 (IL-13 (human) [3]; Fab) | Substance
1 | 0.25 nM | 2.1 nM | 0.54 nM | 2.28 nM | – | – | CAT-354
2 | – | – | – | – | 3.56 nM | 4 nM | CAT-354 fab

Source: US20190343963A1
